According to the RNAGym collection of RNA variant scans (doi:10.1073/pnas.2313332121):
This sample holds only a part of the variants without activity.

B1: TPR 5TU (parent)
chain: GGAUCUUCUCGAUCUAACAAAAAAGACAAAUCUGCCACAAAGCUUGAGAGCAUCUUCGGAUGCAGAGGCGGCAGCCUUCGGUGGCGCGAUAGCGCCAACGUUCUCAACUAUGACACGCAAAACGCGUGCUCCGUUGAAUGGAGUUUAUCAUG

Variants of: B1
Test: polymerase ribozyme fitness, log enrichment relative to wild type (log ratio); higher = more active; in vitro selection for triplet polymerase activity
How it was run: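 A heterodimeric triplet polymerase ribozyme had each of its subunits mutagenized by PCR into a library, which was transcribed. One round of in vitro selection, done in triplicate, annealed each library with a biotinylated primer, its partner subunit and triplets, then incubated it frozen at −7 °C before gel excision of extended constructs, streptavidin-bead capture and RT-PCR. Fitness is the logarithm of genotype enrichment relative to wild-type enrichment, based on Illumina sequencing of inputs and outputs and inverse-variance-weighted replicate averages. A base-2 logarithm is used, and genotypes were kept only with ≥10 input reads and ≥1 read per output.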
In the case of U55G G58A C93A U109G, the “polymerase ribozyme fitness (log ratio)” value is reported as -3.3.
In the case of U56A C57U G83A, the “polymerase ribozyme fitness (log ratio)” value is reported as 0.0377.
In the case of U55A G84A A119C G133U G143A, the “polymerase ribozyme fitness (log ratio)” value is reported as -4.03.
With U55G C105U G141U U145C U146G the “polymerase ribozyme fitness (log ratio)” value was -3.09.
With U55G C63U G81U C87G U102G C116G A150C the “polymerase ribozyme fitness (log ratio)” value was at most -4.2.
For U56A C95U C96G A110G A119G G152U, the “polymerase ribozyme fitness (log ratio)” value was -4.13.
For U55G U56A U82C, the “polymerase ribozyme fitness (log ratio)” value was -1.09.
For U55A C129A, the “polymerase ribozyme fitness (log ratio)” value was -2.11.
For U56A C87U A98U C116G, the “polymerase ribozyme fitness (log ratio)” value was 0.0809.
With U55C C75G C76U G80A C87G C108U the “polymerase ribozyme fitness (log ratio)” value was at most -4.2.
In the case of U55A C57U G84A G141C, the “polymerase ribozyme fitness (log ratio)” value is reported as -0.559.
With U55G C99A the “polymerase ribozyme fitness (log ratio)” value was -3.24.
With U55A A115G G124U the “polymerase ribozyme fitness (log ratio)” value was -0.932.
For U55G G84A C99A A120G C131U, the “polymerase ribozyme fitness (log ratio)” value was -2.08.
For U56A A91G, the “polymerase ribozyme fitness (log ratio)” value was -3.41.
In the case of U56A A89U, the “polymerase ribozyme fitness (log ratio)” value is reported as -0.431.
In the case of U56A C69U C129U, the “polymerase ribozyme fitness (log ratio)” value is reported as -0.94.
For U55A G92U G124U G141C, the “polymerase ribozyme fitness (log ratio)” value was -1.14.
With U55A G74C C118U the “polymerase ribozyme fitness (log ratio)” value was at most -4.2.
With U55A C93U A115U G143U the “polymerase ribozyme fitness (log ratio)” value was at most -4.2.
For U55A U127G, the “polymerase ribozyme fitness (log ratio)” value was -2.72.
For U56A C87G G94C U104C G117U A119U U134C, the “polymerase ribozyme fitness (log ratio)” value was -3.94.
For U56A C93U C116U, the “polymerase ribozyme fitness (log ratio)” value was -1.11.
In the case of U56A C57U U61A C75A G88U A120U U139A G143C, the “polymerase ribozyme fitness (log ratio)” value is reported as at most -4.2.
With U55A C85A C105U U134A the “polymerase ribozyme fitness (log ratio)” value was at most -4.2.
For U55G G86U, the “polymerase ribozyme fitness (log ratio)” value was -0.476.
With U55A U61A A91U A97C A142G the “polymerase ribozyme fitness (log ratio)” value was at most -4.2.
In the case of U55A G117A, the “polymerase ribozyme fitness (log ratio)” value is reported as -0.438.
In the case of U55A U78G G84U C87G C118U, the “polymerase ribozyme fitness (log ratio)” value is reported as at most -4.2.
In the case of U55A G124A, the “polymerase ribozyme fitness (log ratio)” value is reported as -0.272.
In the case of U55A G124U, the “polymerase ribozyme fitness (log ratio)” value is reported as -2.
For U55A U61A A97C C103A C125A, the “polymerase ribozyme fitness (log ratio)” value was at most -4.2.
In the case of U55A A115U, the “polymerase ribozyme fitness (log ratio)” value is reported as -1.89.
In the case of U56A C87A C105G G128C, the “polymerase ribozyme fitness (log ratio)” value is reported as at most -4.2.
With U55C G74C the “polymerase ribozyme fitness (log ratio)” value was -3.64.
For U56A A73G, the “polymerase ribozyme fitness (log ratio)” value was -0.236.
In the case of U55A G88C G133U U145C, the “polymerase ribozyme fitness (log ratio)” value is reported as at most -4.2.
In the case of U56A C57A G84A, the “polymerase ribozyme fitness (log ratio)” value is reported as -0.56.
In the case of U55A G100A, the “polymerase ribozyme fitness (log ratio)” value is reported as at most -4.2.
In the case of U55G U82G C85A A97C U104C G136U, the “polymerase ribozyme fitness (log ratio)” value is reported as -3.65.
With U55A G83U the “polymerase ribozyme fitness (log ratio)” value was -1.69.
In the case of U55A U61A C96A C116G, the “polymerase ribozyme fitness (log ratio)” value is reported as -2.17.
With U56A A73G C87G the “polymerase ribozyme fitness (log ratio)” value was at most -4.2.
In the case of U55A G58U G83C G124C C132G, the “polymerase ribozyme fitness (log ratio)” value is reported as at most -4.2.
For U55G A73C C87A, the “polymerase ribozyme fitness (log ratio)” value was at most -4.2.
With U55A G86A C149U A150U the “polymerase ribozyme fitness (log ratio)” value was -1.65.
With U55G U90G A97G U135G the “polymerase ribozyme fitness (log ratio)” value was at most -4.2.
In the case of U55A G67A C85U U90A A98U, the “polymerase ribozyme fitness (log ratio)” value is reported as at most -4.2.
In the case of U55A U78A C85U C93U, the “polymerase ribozyme fitness (log ratio)” value is reported as at most -4.2.
For U56A C95U C99U C125G, the “polymerase ribozyme fitness (log ratio)” value was -2.57.
With U55G C69A C99U the “polymerase ribozyme fitness (log ratio)” value was -0.89.
For U55A C87U U146A, the “polymerase ribozyme fitness (log ratio)” value was -1.36.
For U55A U56G C75G, the “polymerase ribozyme fitness (log ratio)” value was -4.19.
For U55A A138U, the “polymerase ribozyme fitness (log ratio)” value was -3.9.
For U55A A138G, the “polymerase ribozyme fitness (log ratio)” value was -2.51.
With U55A G68A the “polymerase ribozyme fitness (log ratio)” value was -3.21.
For U55A G140U, the “polymerase ribozyme fitness (log ratio)” value was -2.9.
In the case of U55A G140A, the “polymerase ribozyme fitness (log ratio)” value is reported as -4.
In the case of U56A C75U G143A, the “polymerase ribozyme fitness (log ratio)” value is reported as -0.711.
In the case of U55A G81A C93U C105A C118U, the “polymerase ribozyme fitness (log ratio)” value is reported as -3.74.
With U56A C57A U144A the “polymerase ribozyme fitness (log ratio)” value was -0.177.
For U55A C116G, the “polymerase ribozyme fitness (log ratio)” value was 0.374.
For U55G C96A C105U, the “polymerase ribozyme fitness (log ratio)” value was -0.496.
For U55A C69U G136A, the “polymerase ribozyme fitness (log ratio)” value was -3.04.
In the case of U55A C87U U90C A122U, the “polymerase ribozyme fitness (log ratio)” value is reported as at most -4.2.
In the case of U55A U134G, the “polymerase ribozyme fitness (log ratio)” value is reported as -1.99.
In the case of U55A U134C, the “polymerase ribozyme fitness (log ratio)” value is reported as -0.296.
For U55G G94A A98U C118A, the “polymerase ribozyme fitness (log ratio)” value was -1.56.
For U55G G83C U135A, the “polymerase ribozyme fitness (log ratio)” value was -1.97.
With U55G G62A G92U C96A the “polymerase ribozyme fitness (log ratio)” value was -3.44.
For U55G A60U G83C A137U G141U, the “polymerase ribozyme fitness (log ratio)” value was at most -4.2.
In the case of U55G G80A, the “polymerase ribozyme fitness (log ratio)” value is reported as -2.09.
For U55A C75G U77G A107U, the “polymerase ribozyme fitness (log ratio)” value was at most -4.2.
With U55C G83C A115C C132U the “polymerase ribozyme fitness (log ratio)” value was -2.06.
In the case of U55A G94C, the “polymerase ribozyme fitness (log ratio)” value is reported as -0.443.
For U55C C63U C85G A107U A142U U145A, the “polymerase ribozyme fitness (log ratio)” value was at most -4.2.
For U55A C69G, the “polymerase ribozyme fitness (log ratio)” value was -3.05.
For U56A C93A A98U A107G C129U, the “polymerase ribozyme fitness (log ratio)” value was at most -4.2.
With U55A G81A C87U U135A U146A the “polymerase ribozyme fitness (log ratio)” value was -2.11.
For U55A C72A C99U G126A U139C, the “polymerase ribozyme fitness (log ratio)” value was at most -4.2.
In the case of U56A C57U, the “polymerase ribozyme fitness (log ratio)” value is reported as 0.273.
With U56A C69U A106G the “polymerase ribozyme fitness (log ratio)” value was -1.79.
With U55G G71U the “polymerase ribozyme fitness (log ratio)” value was -1.86.
For U55A G92U U146C, the “polymerase ribozyme fitness (log ratio)” value was -0.69.
